# Data from the DeepSol protein solubility set.
# Experiment: soluble on expression in E. coli; label from the status in PepcDB or PDB records
row,Sequence,soluble on expression in E. coli
1,MSLARIIVVTSGKGGVGKTTSSAAIATGLAQKGKKTVVIDFDIGLRNLDLIMGCERRVVYDFVNVIQGDATLNQALIKDKRTENLYILPASQTRDKDALTREGVAKVLDDLKAMDFEFIVCDSPAGIETGALMALYFADEAIITTNPEVSSVRDSDRILGILASKSRRAENGEEPIKEHLLLTRYNPGRVSRGDMLSMEDVLEILRIKLVGVIPEDQSVLRASNQGEPVILDINADAGKAYADTVERLLGEERPFRFIEEEKKGFLKRLFGGEGHHHHHH,soluble
2,MGVILLLLIIVFSFSKEAYYCIQVLSSRDLSSAERAYRKLADYPHARIEKIGDYYTVRVGLWENKSKAKEYLSQVKSVYPGAFLRTCYYIEDRIVSINKGNVKKKVESFNGKELVLHGKNEKELICKAVKKVFEDIVSFEGKLTKREITFKSYFPYSVADAVNYALILNKKEGFIPVRCRVYKRDKITYVLELEGFKNGKVKGIKAVDYASVTYRNKVLRLKLIF,not soluble
3,MGHHHHHHSHMLLTMPGGVAKAGYLHKKGGTQLQLLKWPLRFVIIHKRCVYYFKSSTSASPQGAFSLSGYNRVMRAAEETTSNNVFPFKIIHISKKHRTWFFSASSEEERKSWMALLRREIGHFHEKKDLP,soluble
4,MLYVLNKCNGLESVEIIHYNNETTDMKELVENPIIVNCKQVTISTVGGMYGSRELLMNFQIERLISGDSAIGTRFRQGSYEPDHVMSLVNSCFKDRVVNFQDHQGLRLRTDNLAKQILVKKCCRDDFEFEWGVSCRVIPSNLQDIDFEEDWPIWTDIDSDEDCDYSSDDEYEYQYNSDSD,not soluble
5,MGSDKIHHHHHHMKNMTLDSLDMLSANILVNLYEKHSASSVAMEMNIPAPKVSRCLQHARMIFNDPLFIRKKHGLEPNEFTRQLYPLVKALVQCGEQLQQLESCHDLAASQVMVLYVSDLLIAELPQRLSSAISEAQLPISYELRTGSVDLVEDLAQGLVDLAIVSESSDRALQDDRLIVSPLTELTHLYLLCSHKHPLLQQEISLGNIANYPYLSAFGQLDKQAPDPFQRYCAQQRLSCHLAPVELGREGLAFHQLYRYLSDDKTVSLLPYSRVYEHSEQLPGLHVCCLSGMDTARLYRDQPYPRLYMLSRSGRGGAHLEWMKQEIGQLIKQNVH,not soluble
6,MEVQSMLLNDVKWEKPVTISLQNGAPRIFNGVYEAFDFLQHEWPARGDRAHEQALRLCRASLMGDVAGEIARTAFVAASRQAHCLMEDKAEAPNTIASGS,soluble
7,MFCDRIRGSLTKDKERIMSSKNYIDVIIDGKIYNIGGFESEAYLQKVASYINNMIAEFKQNENYRVQKVDMQRILLEINIANDYFKAKKQADLLQNDIELKEKEVYDLKHELIVSDSKAETATKELNEALEKIESLEKEIIKLQTELEK,not soluble
8,MAEQSDKDVKYYTLEEIQKHKDSKSTWVILHHKVYDLTKFLEEHPGGEEVLREQAGGDATENFEDVGHSTDARELSKTYIIGELHPDDRSKIAKPSETL,soluble
9,MSDIESLGEAAGLFEEPEDFLPPPPKPHFAEYQRSHITKESKSDVKDIKLRLVGTSPLWGHLLWNAGIYTANHLDSHPELIKGKTVLELGAAAALPSVICALNGAQMVVSTDYPDPDLMQNIDYNIKSNVPEDFNNVSTEGYIWGNDYSPLLAHIEKIGNNNGKFDLIILSDLVFNHTEHHKLLQTTKDLLAEKGQALVVFSPHRPKLLEKDLEFFELAKNEFHLVPQLIEMVNWKPMFDEDEETIEVRSRVYAYYLTHEK,soluble
10,MPIVYYDGNCIYCYNYVIWLIQHDLPRNYQFATLKGEVGQQFFKQHPEAANKNSVILQKGDCIYFESQAIIKLITALPNRTKLLGVGLWLVPKPVRNFGYRMFANNRNRMWKTTWHQPNDYEKSFFLDDNAKVKLTDLEHHHHHH,soluble
11,APPSSFSKAKKEAVKIYLDYPTSFYCGCDITWKNKKKGIPELESCGYQVRKQEKRASRIEWEHVVPAWQFGHQRQCWQKGGRKNCTRNDKQFKSMEADLHNLVPAIGEVNGDRSNFRFSQWNGSKGAFYGQCAFKVDFKGRVAEPPAQSRGAIARTYLYMNNEYKFNLSKAQRQLMEAWNKQYPVSTWECTRDERIAKIQGNHNQFVYKAC,soluble
